# Molecular target: T1, mature EnvC (murein hydrolase activator), non-tagged, co-expressed for crystallisation (E. coli, UniProt P37690 35-419)
# T1 construct: EnvC, E. coli, mature protein
# T1 sequence (looked up): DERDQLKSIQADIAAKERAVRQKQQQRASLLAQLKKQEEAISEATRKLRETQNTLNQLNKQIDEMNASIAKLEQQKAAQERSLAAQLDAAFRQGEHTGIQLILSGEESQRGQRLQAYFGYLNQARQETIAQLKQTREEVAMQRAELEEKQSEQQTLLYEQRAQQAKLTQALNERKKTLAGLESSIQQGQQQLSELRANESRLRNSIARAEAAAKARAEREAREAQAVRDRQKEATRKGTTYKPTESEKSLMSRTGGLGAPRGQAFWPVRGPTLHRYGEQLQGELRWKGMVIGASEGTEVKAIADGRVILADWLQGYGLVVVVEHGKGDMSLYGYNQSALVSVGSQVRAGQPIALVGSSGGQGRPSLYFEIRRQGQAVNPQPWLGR
# Test: crystal structure; X-ray, 2.1 Å, space group P2(1)2(1)2(1); His-tagged FtsX periplasmic domain and non-tagged EnvC coexpressed and copurified by Ni-IMAC; molecular replacement
# Conditions: both partners purified
binder,measurement,value
"FtsX periplasmic domain, histidine-tagged, co-expressed for crystallisation (domain or fragment, E. coli, FtsX periplasmic domain (between the first and second transmembrane helix), E. coli; The two-hybrid construct of the same domain is residues 110 to 209; also called FtsX I; FtsX II; source: E. coli C43(DE3), coexpressed with non-tagged EnvC from a pETDuet1-based vector, copurified by Ni-IMAC) QITVYLQKTLDDDAAAGVVAQLQAEQGVEKVNYLSREDALGEFRNWSGFGGALDMLEENPLPAVAVVIPKLDFQGTESLNTLRDRITQINGIDEVRMDDS",stoichiometry N,2 FtsX periplasmic domains per EnvC
